According to the supplement of paper PMC5998384:

Assays:
HeLa Kyoto [1] = assay: solubility change mitosis vs G1/S (difference of NP-40 vs SDS log2 ratios) (log2 ratio difference); higher = more soluble in mitosis
HeLa Kyoto [2] = assay: solubility in G1/S (NP-40 vs SDS abundance) (log2 ratio); higher = more soluble; conditions: cell cycle stage: G1/S
HeLa Kyoto [3] = assay: melting temperature (median over replicates), in situ; higher = more thermally stable
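For melting temperature (median over replicates), in situ in this document: HeLa Kyoto cells synchronized by double thymidine or nocodazole block, proteins quantified by TMT10plex mass spectrometry, three independent biological replicates.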
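For solubility change mitosis vs G1/S (difference of NP-40 vs SDS log2 ratios) in this document: synchronized HeLa Kyoto cells (double thymidine block for G1/S, nocodazole release for mitosis), protein amounts in NP-40 versus SDS lysates quantified by mass spectrometry, three biological replicates.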
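For solubility in G1/S (NP-40 vs SDS abundance) in this document: HeLa Kyoto cells arrested at G1/S by double thymidine block, proteins quantified by TMT10plex mass spectrometry in mild NP-40 versus SDS extracts, three biological replicates.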

Row | Sequence | solubility change mitosis (log2) (HeLa Kyoto [1]) | solubility in G1/S (log2) (HeLa Kyoto [2]) | melting temperature (HeLa Kyoto [3]; cell cycle stage: G1/S) [°C] | melting temperature (HeLa Kyoto [3]; cell cycle stage: mitosis) [°C]
1 | MAFTNYSSLNRAQLTFEYLHTNSTTHEFLFGALAELVDNARDADATRIDIYAERREDLRGGFMLCFLDDGAGMDPSDAASVIQFGKSAKRTPESTQIGQYGNGLKSGSMRIGKDFILFTKKEDTMTCLFLSRTFHEEEGIDEVIVPLPTWNARTREPVTDNVEKFAIETELIYKYSPFRTEEEVMTQFMKIPGDSGTLVIIFNLKLMDNGEPELDIISNPRDIQMAETSPEGTKPERRSFRAYAAVLYIDPRMRIFIHGHKVQTKRLSCCLYKPRMYKYTSSRFKTRAEQEVKKAEHVARIAEEKAREAESKARTLEVRLGGDLTRDSRVMLRQVQNRAITLRREADVKKRIKEAKQRALKEPKELNFVFGVNIEHRDLDGMFIYNCSRLIKMYEKVGPQLEGGMACGGVVGVVDVPYLVLEPTHNKQDFADAKEYRHLLRAMGEHLAQYWKDIAIAQRGIIKFWDEFGYLSANWNQPPSSELRYKRRRAMEIPTTIQCDLCLKWRTLPFQLSSVEKDYPDTWVCSMNPDPEQDRCEASEQKQKVPLGTFRKDMKTQEEKQKQLTEKIRQQQEKLEALQKTTPIRSQADLKKLPLEVTTRPSTEEPVRRPQRPRSPPLPAVIRNAPSRPPSLPTPRPASQPRKAPVISSTPKLPALAAREEASTSRLLQPPEAPRKPANTLVKTASRPAPLVQQLSPSLLPNSKSPREVPSPKVIKTPVVKKTESPIKLSPATPSRKRSVAVSDEEEVEEEAERRKERCKRGRFVVKEEKKDSNELSDSAGEEDSADLKRAQKDKGLHVEVRVNREWYTGRVTAVEVGKHVVRWKVKFDYVPTDTTPRDRWVEKGSEDVRLMKPPSPEHQSLDTQQEGGEEEVGPVAQQAIAVAEPSTSECLRIEPDTTALSTNHETIDLLVQILRNCLRYFLPPSFPISKKQLSAMNSDELISFPLKEYFKQYEVGLQNLCNSYQSRADSRAKASEESLRTSERKLRETEEKLQKLRTNIVALLQKVQEDIDINTDDELDAYIEDLITKGD [MORC2] | -0.0838 | -0.0374 | 48.1 | 48.6
2 | MAGSPELVVLDPPWDKELAAGTESQALVSATPREDFRVRCTSKRAVTEMLQLCGRFVQKLGDALPEEIREPALRDAQWTFESAVQENISINGQAWQEASDNCFMDSDIKVLEDQFDEIIVDIATKRKQYPRKILECVIKTIKAKQEILKQYHPVVHPLDLKYDPDPAPHMENLKCRGETVAKEISEAMKSLPALIEQGEGFSQVLRMQPVIHLQRIHQEVFSSCHRKPDAKPENFITQIETTPTETASRKTSDMVLKRKQTKDCPQRKWYPLRPKKINLDT [NSL1] | -0.0661 | 0.0226 | 50.2 | 49.9
3 | MAHRLQIRLLTWDVKDTLLRLRHPLGEAYATKARAHGLEVEPSALEQGFRQAYRAQSHSFPNYGLSHGLTSRQWWLDVVLQTFHLAGVQDAQAVAPIAEQLYKDFSHPCTWQVLDGAEDTLRECRTRGLRLAVISNFDRRLEGILGGLGLREHFDFVLTSEAAGWPKPDPRIFQEALRLAHMEPVVAAHVGDNYLCDYQGPRAVGMHSFLVVGPQALDPVVRDSVPKEHILPSLAHLLPALDCLEGSTPGL [HDHD3] | 0.0289 | 0.0599 | 53.9 | 54.8
4 | MALITLRKNLYRLSDFQMHRALAALKNKPLNHVHKVVKERLCPWLCSRQPEPFGVKFHHAHCKKFHSKNGNDLHPLGGPVFSQVSDCDRLEQNVKNEESQMFYRRLSNLTSSEEVLSFISTMETLPDTMAAGALQRICEVEKKDGDQGLPKEILENSIFQALCFQFEKEPSQLSNTSLVTALQALILLHVDPQSSLLLNLVAECQNRLRKGGMEVRNLCILGESLITLHSSGCVTLELIINQLQGEKLETFTPEDIVALYRILQACTEKVDEHQTFLNKINNFSLSIVSNLSPKLISQMLTALVVLDQSQAFPLIIKLGKYVVRHVPHFTNEELRRVLEAFIYFGHHDTFFTKALEHRVAAVCLTLDPEVVCRVMEYCSRELILSKPILNAVAETFVCQTEKFSPRQISALMEPFGKLNYLPPNASALFRKLENVLFTHFNYFPPKSLLKLLHSCSLNECHPVNFLAKIFKPLFLQRLQGKESHLDTLSRAQLTQLFLASVLECPFYKGPKLLPKYQVKSFLTPCCSLETPVDSQLYRYVKIGLTNLLGARLYFAPKVLTPYCYTIDVEIKLDEEGFVLPSTANEDIHKRIALCIDGPKRFCSNSKHLLGKEAIKQRHLQLLGYQVVQIPYHEIGMLKSRRELVEYLQRKLFSQNTVHWLQE [FASTKD3] | -0.151 | -0.00458 |  | 47.8
5 | MALLAEHLLKPLPADKQIETGPFLEAVSHLPPFFDCLGSPVFTPIKADISGNITKIKAVYDTNPAKFRTLQNILEVEKEMYGAEWPKVGATLALMWLKRGLRFIQVFLQSICDGERDENHPNLIRVNATKAYEMALKKYHGWIVQKIFQAALYAAPYKSDFLKALSKGQNVTEEECLEKIRLFLVNYTATIDVIYEMYTQMNAELNYKV [GLTP] | -0.117 | -0.139 |  | 53.3
6 | MAMSFEWPWQYRFPPFFTLQPNVDTRQKQLAAWCSLVLSFCRLHKQSSMTVMEAQESPLFNNVKLQRKLPVESIQIVLEELRKKGNLEWLDKSKSSFLIMWRRPEEWGKLIYQWVSRSGQNNSVFTLYELTNGEDTEDEEFHGLDEATLLRALQALQQEHKAEIITVSDGRGVKFF [VPS25] | -0.086 | -0.0882 | 51.2 | 51.3
7 | MAMVVSTWRDPQDEVPGSQGSQASQAPPVPGPPPGAPHTPQTPGQGGPASTPAQTAAGGQGGPGGPGSDKQQQQQHIECVVCGDKSSGKHYGQFTCEGCKSFFKRSVRRNLSYTCRANRNCPIDQHHRNQCQYCRLKKCLKVGMRREAVQRGRMPPTQPTHGQFALTNGDPLNCHSYLSGYISLLLRAEPYPTSRFGSQCMQPNNIMGIENICELAARMLFSAVEWARNIPFFPDLQITDQVALLRLTWSELFVLNAAQCSMPLHVAPLLAAAGLHASPMSADRVVAFMDHIRIFQEQVEKLKALHVDSAEYSCLKAIVLFTSDACGLSDVAHVESLQEKSQCALEEYVRSQYPNQPTRFGKLLLRLPSLRTVSSSVIEQLFFVRLVGKTPIETLIRDMLLSGSSFNWPYMAIQ [NR2F2] | -0.152 | -0.00984 |  | 50.3
8 | MAQEFVNCKIQPGKVVVFIKPTCPYCRRAQEILSQLPIKQGLLEFVDITATNHTNEIQDYLQQLTGARTVPRVFIGKDCIGGCSDLVSLQQSGELLTRLKQIGALQ [GLRX] | 0.0467 | 0.253 | 54.7 | 53.4
9 | MAQRLLLRRFLASVISRKPSQGQWPPLTSRALQTPQCSPGGLTVTPNPARTIYTTRISLTTFNIQDGPDFQDRVVNSETPVVVDFHAQWCGPCKILGPRLEKMVAKQHGKVVMAKVDIDDHTDLAIEYEVSAVPTVLAMKNGDVVDKFVGIKDEDQLEAFLKKLIG [TXN2] | 0.017 | 0.576 | 53.5 | 52.9
10 | MAQSINITELNLPQLEMLKNQLDQEVEFLSTSIAQLKVVQTKYVEAKDCLNVLNKSNEGKELLVPLTSSMYVPGKLHDVEHVLIDVGTGYYVEKTAEDAKDFFKRKIDFLTKQMEKIQPALQEKHAMKQAVMEMMSQKIQQLTALGAAQATAKA [PFDN5] | 0.784 | -0.425 | 54.4 | 53.1
11 | MARDLIGPALPPGFKARGTAEDEERDPSPVAGPALPPNYKSSSSDSSDSDEDSSSLYEEGNQESEEDDSGPTARKQRKNQDDDDDDDDGFFGPALPPGFKKQDDSPPRPIIGPALPPGFIKSTQKSDKGRDDPGQQETDSSEDEDIIGPMPAKGPVNYNVTTEFEKRAQRMKEKLTKGDDDSSKPIVRESWMTELPPEMKDFGLGPRTFKRRADDTSGDRSIWTDTPADRERKAKETQEARKSSSKKDEEHILSGRDKRLAEQVSSYNESKRSESLMDIHHKKLKSKAAEDKNKPQERIPFDRDKDLKVNRFDEAQKKALIKKSRELNTRFSHGKGNMFL [GPALPP1] | 0.245 | 0.0784 | 55.1 | 56.1
12 | MASPAASSVRPPRPKKEPQTLVIPKNAAEEQKLKLERLMKNPDKAVPIPEKMSEWAPRPPPEFVRDVMGSSAGAGSGEFHVYRHLRRREYQRQDYMDAMAEKQKLDAEFQKRLEKNKIAAEEQTAKRRKKRQKLKEKKLLAKKMKLEQKKQEGPGQPKEQGSSSSAEASGTEEEEEVPSFTMGR [PRKRIP1] | 0.169 | 0.499 | 53.3 | 53.6
13 | MASQGRRRRPLRRPETVVPGEATETDSERSASSSEEEELYLGPSGPTRGRPTGLRVAGEAAETDSEPEPEPEPTAAPRDLPPLVVQRESAEEAWGTEEAPAPAPARSLLQLRLAESQARLDHDVAAAVSGVYRRAGRDVAALASRLAAAQAAGLAAAHSVRLARGDLCALAERLDIVAGCRLLPDIRGVPGTEPEKDPGPRA [BLOC1S3] | 0.0331 | 0.568 | 52.6 | 54.9
14 | MASSAASSEHFEKLHEIFRGLHEDLQGVPERLLGTAGTEEKKKLIRDFDEKQQEANETLAEMEEELRYAPLSFRNPMMSKLRNYRKDLAKLHREVRSTPLTATPGGRGDMKYGIYAVENEHMNRLQSQRAMLLQGTESLNRATQSIERSHRIATETDQIGSEIIEELGEQRDQLERTKSRLVNTSENLSKSRKILRSMSRKVTTNKLLLSIIILLELAILGGLVYYKFFRSH [VTI1B] | 0.188 | 0.392 | 53.5 | 52.5
15 | MASSASARTPAGKRVINQEELRRLMKEKQRLSTSRKRIESPFAKYNRLGQLSCALCNTPVKSELLWQTHVLGKQHREKVAELKGAKEASQGSSASSAPHSVKRKAPDADDQDVKRAKATLVPQVQPSTSAWTTNFDKIGKEFIRATPSKPSGLSLLPDYEDEEEEEEEEEGDGERKRGDASKPLSDAQGKEHSVSSSREVTSSVLPNDFFSTNPPKAPIIPHSGSIEKAEIHEKVVERRENTAEALPEGFFDDPEVDARVRKVDAPKDQMDKEWDEFQKAMRQVNTISEAIVAEEDEEGRLDRQIGEIDEQIECYRRVEKLRNRQDEIKNKLKEILTIKELQKKEEENADSDDEGELQDLLSQDWRVKGALL [ZNF830] | 0.0142 | 0.423 | 56.2 | 54.4
16 | MASSFLPAGAITGDSGGELSSGDDSGEVEFPHSPEIEETSCLAELFEKAAAHLQGLIQVASREQLLYLYARYKQVKVGNCNTPKPSFFDFEGKQKWEAWKALGDSSPSQAMQEYIAVVKKLDPGWNPQIPEKKGKEANTGFGGPVISSLYHEETIREEDKNIFDYCRENNIDHITKAIKSKNVDVNVKDEEGRALLHWACDRGHKELVTVLLQHRADINCQDNEGQTALHYASACEFLDIVELLLQSGADPTLRDQDGCLPEEVTGCKTVSLVLQRHTTGKA [ACBD6] | 0.0566 | 0.393 | 48 | 49.2
17 | MASSLNEDPEGSRITYVKGDLFACPKTDSLAHCISEDCRMGAGIAVLFKKKFGGVQELLNQQKKSGEVAVLKRDGRYIYYLITKKRASHKPTYENLQKSLEAMKSHCLKNGVTDLSMPRIGCGLDRLQWENVSAMIEEVFEATDIKITVYTL [OARD1] | 0.139 | 0.299 |  | 50.5
18 | MASYFDEHDCEPSDPEQETRTNMLLELARSLFNRMDFEDLGLVVDWDHHLPPPAAKTVVENLPRTVIRGSQAELKCPVCLLEFEEEETAIEMPCHHLFHSSCILPWLSKTNSCPLCRYELPTDDDTYEEHRRDKARKQQQQHRLENLHGAMYT [RNF181] | 0.00514 | 0.563 | 54.8 | 55.8
